The values below come from IntAct's records for PubMed 19197237.

Sequences and labels used below:
B1: Peroxisomal biogenesis factor 19 (Homo sapiens), P40855 (parent)
chain: MAAAEEGCSVGAEADRELEELLESALDDFDKAKPSPAPPSTTTAPDASGPQKRSPGDTAKDALFASQEKFFQELFDSELASQATAEFEKAMKELAEEEPHLVEQFQKLSEAAGRVGSDMTSQQEFTSCLKETLSGLAKNATDLQNSSMSEEELTKAMEGLGMDEGDGEGNILPIMQSIMQNLLSKDVLYPSLKEITEKYPEWLQSHRESLPPEQFEKYQEQHSVMCKICEQFEAETPTDSETTQKARFEMVLDLMQQLQDLGHPPKELAGEMPPGLNFDLDALNLSGPPGASGEQCLIM
B2: Peroxisomal membrane protein PEX14 (Homo sapiens), O75381 (parent)
chain: MASSEQAEQPSQPSSTPGSENVLPREPLIATAVKFLQNSRVRQSPLATRRAFLKKKGLTDEEIDMAFQQSGTAADEPSSLGPATQVVPVQPPHLISQPYSPAGSRWRDYGALAIIMAGIAFGFHQLYKKYLLPLILGGREDRKQLERMEAGLSELSGSVAQTVTQLQTTLASVQELLIQQQQKIQELAHELAAAKATTSTNWILESQNINELKSEINSLKGLLLNRRQFPPSPSAPKIPSWQIPVKSPSPSSPAAVNHHSSSDISPVSNESTSSSPGKEGHSPEGSTVTYHLLGPQEEGEGVVDVKGQVRMEVQGEEEKREDKEDEEDEEDDDVSHVDEEDCLGVQREDRRGGDGQINEQVEKLRRPEGASNESERD
partner: B1 chain

In one test the parent is B1. The following applies: with pex14_human PEX14, O75381.
As to MAAAEEGCSVGAEADRELEELLESALDDFDKAKPSPAPPSTTTAPDASGPQKRSPGDTAKDALFASQEKFFQEAFDSELASQATAEFEKAMKELAEEEPHLVEQFQKLSEAAGRVGSDMTSQQEFTSCLKETLSGLAKNATDLQNSSMSEEELTKAMEGLGMDEGDGEGNILPIMQSIMQNLLSKDVLYPSLKEITEKYPEWLQSHRESLPPEQFEKYQEQHSVMCKICEQFEAETPTDSETTQKARFEMVLDLMQQLQDLGHPPKELAGEMPPGLNFDLDALNLSGPPGASGEQCLIM [L74A], the “effect of a mutation on the interaction” value is given as “disrupting interaction”.

The variants in the next test derive from B1. The settings on record: with pex14_human PEX14, O75381. This is another data set of the same source.
Regarding MAAAEEGCSVGAEADRELEELLESALDDFDKAKPSPAPPSTTTAPDASGPQKRSPGDTAKDALFASQAKFFQELFDSELASQATAEFEKAMKELAEEEPHLVEQFQKLSEAAGRVGSDMTSQQEFTSCLKETLSGLAKNATDLQNSSMSEEELTKAMEGLGMDEGDGEGNILPIMQSIMQNLLSKDVLYPSLKEITEKYPEWLQSHRESLPPEQFEKYQEQHSVMCKICEQFEAETPTDSETTQKARFEMVLDLMQQLQDLGHPPKELAGEMPPGLNFDLDALNLSGPPGASGEQCLIM [E68A], the “effect of a mutation on the interaction” value is on record as “disrupting interaction”.

A further test covers variants of B1. The settings on record: with pex14_human PEX14, O75381. This is another data set of the same source.
As to MAAAEEGCSVGAEADRELEELLESALDDFDKAKPSPAPPSTTTAPDASGPQKRSPGDTAKDALFASQEKFAQELFDSELASQATAEFEKAMKELAEEEPHLVEQFQKLSEAAGRVGSDMTSQQEFTSCLKETLSGLAKNATDLQNSSMSEEELTKAMEGLGMDEGDGEGNILPIMQSIMQNLLSKDVLYPSLKEITEKYPEWLQSHRESLPPEQFEKYQEQHSVMCKICEQFEAETPTDSETTQKARFEMVLDLMQQLQDLGHPPKELAGEMPPGLNFDLDALNLSGPPGASGEQCLIM [F71A], the “effect of a mutation on the interaction” value is “disrupting interaction”.

Another test covers variants of B1. The settings on record: with pex14_human PEX14, O75381. This is another data set of the same source.
As for MAAAEEGCSVGAEADRELEELLESALDDFDKAKPSPAPPSTTTAPDASGPQKRSPGDTAKDALFASQEKAFQELFDSELASQATAEFEKAMKELAEEEPHLVEQFQKLSEAAGRVGSDMTSQQEFTSCLKETLSGLAKNATDLQNSSMSEEELTKAMEGLGMDEGDGEGNILPIMQSIMQNLLSKDVLYPSLKEITEKYPEWLQSHRESLPPEQFEKYQEQHSVMCKICEQFEAETPTDSETTQKARFEMVLDLMQQLQDLGHPPKELAGEMPPGLNFDLDALNLSGPPGASGEQCLIM [F70A], the “effect of a mutation on the interaction” value is reported as “disrupting interaction”.

The variants in a further test derive from B1. The settings on record: with pex14_human PEX14, O75381. This is another data set of the same source.
For MAAAEEGCSVGAEADRELEELLESALDDFDKAKPSPAPPSTTTAPDASGPQKRSPGDTAKDALFASQEKFFQELADSELASQATAEFEKAMKELAEEEPHLVEQFQKLSEAAGRVGSDMTSQQEFTSCLKETLSGLAKNATDLQNSSMSEEELTKAMEGLGMDEGDGEGNILPIMQSIMQNLLSKDVLYPSLKEITEKYPEWLQSHRESLPPEQFEKYQEQHSVMCKICEQFEAETPTDSETTQKARFEMVLDLMQQLQDLGHPPKELAGEMPPGLNFDLDALNLSGPPGASGEQCLIM [F75A], the “effect of a mutation on the interaction” value is recorded as “disrupting interaction”.

The next test covers variants of B2. The following applies: with pex19_human PEX19, P40855.
Regarding MASSEQAEQPSQPSSTPGSENVLPREPLIATAVKFLQNSRVRQSPLATERAFLKKKGLTDEEIDMAFQQSGTAADEPSSLGPATQVVPVQPPHLISQPYSPAGSRWRDYGALAIIMAGIAFGFHQLYKKYLLPLILGGREDRKQLERMEAGLSELSGSVAQTVTQLQTTLASVQELLIQQQQKIQELAHELAAAKATTSTNWILESQNINELKSEINSLKGLLLNRRQFPPSPSAPKIPSWQIPVKSPSPSSPAAVNHHSSSDISPVSNESTSSSPGKEGHSPEGSTVTYHLLGPQEEGEGVVDVKGQVRMEVQGEEEKREDKEDEEDEEDDDVSHVDEEDCLGVQREDRRGGDGQINEQVEKLRRPEGASNESERD [R49E], the “effect of a mutation on the interaction” value was “decreasing interaction”.

The variants in another test derive from B2. The settings on record: with pex19_human PEX19, P40855. This is another data set of the same source.
As for MASSEQAEQPSQPSSTPGSENVLPREPLIATAVKFLQNSRVRQSPLATRRAWLKKKGLTDEEIDMAFQQSGTAADEPSSLGPATQVVPVQPPHLISQPYSPAGSRWRDYGALAIIMAGIAFGFHQLYKKYLLPLILGGREDRKQLERMEAGLSELSGSVAQTVTQLQTTLASVQELLIQQQQKIQELAHELAAAKATTSTNWILESQNINELKSEINSLKGLLLNRRQFPPSPSAPKIPSWQIPVKSPSPSSPAAVNHHSSSDISPVSNESTSSSPGKEGHSPEGSTVTYHLLGPQEEGEGVVDVKGQVRMEVQGEEEKREDKEDEEDEEDDDVSHVDEEDCLGVQREDRRGGDGQINEQVEKLRRPEGASNESERD [F52W], the “effect of a mutation on the interaction” value is “disrupting interaction”.

In another test the parent is B2. The settings on record: with pex19_human PEX19, P40855. The source holds these as a separate data set.
Consider MASSEQAEQPSQPSSTPGSENVLPREPLIATAVKFLQNSRVRQSPLATRRAFLKKEGLTDEEIDMAFQQSGTAADEPSSLGPATQVVPVQPPHLISQPYSPAGSRWRDYGALAIIMAGIAFGFHQLYKKYLLPLILGGREDRKQLERMEAGLSELSGSVAQTVTQLQTTLASVQELLIQQQQKIQELAHELAAAKATTSTNWILESQNINELKSEINSLKGLLLNRRQFPPSPSAPKIPSWQIPVKSPSPSSPAAVNHHSSSDISPVSNESTSSSPGKEGHSPEGSTVTYHLLGPQEEGEGVVDVKGQVRMEVQGEEEKREDKEDEEDEEDDDVSHVDEEDCLGVQREDRRGGDGQINEQVEKLRRPEGASNESERD [K56E], for which the “effect of a mutation on the interaction” value is recorded as “decreasing interaction”.
